Reference: US20170204187A1, “METHODS OF TREATING AND PREVENTING CANCER DRUG RESISTANCE” (Genentech, Inc., priority 2014, published 2017)

Test system: LOX-IMVI cells
Experiment: Secreted factor rescue screen on LOX-IMVI (FIG. 23)
Type: cell-based
Excerpt: FIG. 23 A-C.|Vemurafenib resistant and sensitive cell lines can be used to determine and anticipate paths to resistance in patients. LOX-IMVI cells were rescued by FGF1, FGF2, EGF, and HGF in the screen. A, LOX-IMVI VemR cells were re-sensitized to PLX4032 by FGFR inhibition. B, Dual resistant LOX-IMVI VemR/FGFRi (i.e., resistant to vemurafenib and FGFR inhibitor) cells were re-sensitized to PLX4032 by EGFR inhibition. C, Triple resistant LOX-IMVI VemR/FGFRi/Erlotinib cells were re-sensitized to PLX4032 by MET inhibition.

B1: EGF: secreted factor (protein, UniProt P01133 23-1207, looked up)
Pro-epidermal growth factor: PQHWSCPEGTLAGNGNSTCVGPAPFLIFSHGNSIFRIDTEGTNYEQLVVDAGVSVIMDFHYNEKRIYWVDLERQLLQRVFLNGSRQERVCNIEKNVSGMAINWINEEVIWSNQQEGIITVTDMKGNNSHILLSALKYPANVAVDPVERFIFWSSEVAGSLYRADLDGVGVKALLETSEKITAVSLDVLDKRLFWIQYNREGSNSLICSCDYDGGSVHISKHPTQHNLFAMSLFGDRIFYSTWKMKTIWIANKHTGKDMVRINLHSSFVPLGELKVVHPLAQPKAEDDTWEPEQKLCKLRKGNCSSTVCGQDLQSHLCMCAEGYALSRDRKYCEDVNECAFWNHGCTLGCKNTPGSYYCTCPVGFVLLPDGKRCHQLVSCPRNVSECSHDCVLTSEGPLCFCPEGSVLERDGKTCSGCSSPDNGGCSQLCVPLSPVSWECDCFPGYDLQLDEKSCAASGPQPFLLFANSQDIRHMHFDGTDYGTLLSQQMGMVYALDHDPVENKIYFAHTALKWIERANMDGSQRERLIEEGVDVPEGLAVDWIGRRFYWTDRGKSLIGRSDLNGKRSKIITKENISQPRGIAVHPMAKRLFWTDTGINPRIESSSLQGLGRLVIASSDLIWPSGITIDFLTDKLYWCDAKQSVIEMANLDGSKRRRLTQNDVGHPFAVAVFEDYVWFSDWAMPSVMRVNKRTGKDRVRLQGSMLKPSSLVVVHPLAKPGADPCLYQNGGCEHICKKRLGTAWCSCREGFMKASDGKTCLALDGHQLLAGGEVDLKNQVTPLDILSKTRVSEDNITESQHMLVAEIMVSDQDDCAPVGCSMYARCISEGEDATCQCLKGFAGDGKLCSDIDECEMGVPVCPPASSKCINTEGGYVCRCSEGYQGDGIHCLDIDECQLGEHSCGENASCTNTEGGYTCMCAGRLSEPGLICPDSTPPPHLREDDHHYSVRNSDSECPLSHDGYCLHDGVCMYIEALDKYACNCVVGYIGERCQYRDLKWWELRHAGHGQQQKVIVVAVCVVVLVMLLLLSLWGAHYYRTQKLLSKNPKNPYEESSRDVRSRRPADTEDGMSSCPQPWFVVIKEHQDLKNGGQPVAGEDGQAADGSMQPTSWRQEPQLCGMGTEQGCWIPVSSDKGSCPQVMERSFHMPSYGTQTLEGGVEKPHSLLSANPLWQQRALDPPHQMELTQ
modifications: Pro-epidermal growth factor
With B1 the “rescue in the secreted factor screen” value was “rescued”.
